Reference: publication doi:10.1101/2025.08.01.667725 (bioRxiv, 2025)

Molecular target: T1, FLAG-tagged full-length PU.1, purified (human, UniProt P17947 1-270)
T1 construct: PU.1 transcription factor, full length; also called FLAG-PU.1; purified PU.1; source: 293-ExpiF (Expi293TF) cells, transfected with pCAG, purified (FLAG M2 beads, anion exchange, size exclusion)
Experiment: MST; SMARCD2 SWIFT domain and PU.1; Kd model fit
Conditions: both partners purified

Kd: 3.6 µM
B1: SMARCD2 SWIFT domain, purified from E. coli (domain or fragment, human)
chain: LTQKRKLRIYISNTFSPSKAEGDSAGTAGTPGGTPAGDKVASWELRVEGKLLDDPSKQKRKFSSFFKSLVIELDKELYGPDNHLVEWHRMPTTQETDGFQVKRPGDLNVKCTLLLMLDHQPPQYQHPDPIVINHVISVDPNDQKKTACYDIDVEVD
notes: SMARCD2, human, stretch of the SWIFT domain before the SWIB domain; the text gives aa185–312; also called SMARCD2 YEATS-like SWIFT domain; source: E. coli (pGOOD), purified
